From patent US20210324359A1, “USE OF GRAM-NEGATIVE LYSIN-ANTIMICROBIAL PEPTIDE (AMP) POLYPEPTIDE CONSTRUCTS IN TREATING ENDOCARDITIS” (priority 2020, published 2021)

Legend:
[1] = system: P. aeruginosa; experiment: MIC, modified CLSI broth microdilution in CAA medium without or with […] human serum (Table 4); format: cell-based, Pseudomonas aeruginosa; as to CAA/HuS MIC: CAA supplemented with 2.5% human serum
Source text: 2015. […] Clinical and Laboratory Standards Institute, Wayne, Pa.

[2] = system: Pseudomonas aeruginosa strain CFS-1292 (meropenem resistant); details: strain CFS-1292; no added cations
Experimental: The activity of selected GN lysins and constructs in the presence of divalent cations was evaluated, and the impact of divalent cations at physiological concentrations was examined in the MIC assay format.

[3] = system: P. aeruginosa strain WC-453; experiment: Time-kill assay in HEPES or CAA with 25% human serum (Tables 7, 8); format: cell-based, Pseudomonas aeruginosa
Experimental: Exponential phase bacteria were then pelleted and resuspended in 1/5 culture volume of 25 mM HEPES, pH 7.4 before a final adjustment to an optical density corresponding to a McFarland value of 0.5. […] All treatments were incubated at 37° C. with aeration. At time points before the addition of lysin (or buffer control) and at 1 hour and 3 hours intervals thereafter, culture samples were removed for quantitative plating on CAA agar plates.

[4] = system: biofilms formed by P. aeruginosa strain ATCC 17646; details: strain ATCC 17646 biofilm
Experimental: (§1) Biofilms are then washed and treated with e.g., a 2-fold dilution series of the lysin in TSBg at e.g., 37° C. for 24 hours. After treatment, wells are washed, air-dried at e.g., 37° C. and stained with e.g., 0.05% crystal violet for 10 minutes.

[5] = system: P. aeruginosa isolates; experiment: MIC against a range of isolates in CAA + […] human serum (Table 11); format: cell-based, Pseudomonas aeruginosa
[6] = system: Pseudomonas aeruginosa strain CFS-1292 (meropenem resistant); experiment: MIC in 25% CAA alone, with […] human serum or […] SURVANTA (Table 13); format: cell-based
Experimental: (§2) Materials and methods: MICs were determined by broth microdilution in media supplemented with human serum and pulmonary surfactant ([…]®; Myoderm Clinical Supplies). Minimal biofilm eradicating concentrations (MBECs) were determined using standard methods. […] Fluorescence microscopy was performed after LIVE/DEAD staining (ThermoFisher) and TEM was performed.

[7] = system: Pseudomonas aeruginosa biofilm; experiment: MBEC in CAA supplemented with […] human serum (Table 14); format: cell-based
Experimental: as §1, §2

[8] = system: outer membrane of P. aeruginosa (CFS 1292); experiment: N-phenyl-1-napthylamine (NPN) uptake assay, outer membrane destabilization (Table 15); format: cell-based, Pseudomonas aeruginosa; details: NPN fluorescence, buffer = 100, lysin 100 μg/well
Experimental: The ability of gram-negative lysins to destabilize the outer membrane of P. aeruginosa was evaluated through the use of an N-phenyl-1-napthylamine (NPN) uptake assay. […] NPN was added to a final concentration of […]. […] Changes in fluorescence were recorded (excitation 1=350 nm; emission 1=420 nm) over two hours.

[9] = system: P. aeruginosa strains; experiment: Checkerboard synergy with meropenem in 25% CAA and […] human serum (Table 16); format: cell-based, Pseudomonas aeruginosa; details: for FICI value (Run #1), with meropenem / FICI value (Run #2), with meropenem: 25% CAA and […] human serum
[10] = system: carbapenem-resistant P. aeruginosa strains; experiment: Resensitization of carbapenem-resistant strains, combinations with imipenem or meropenem (Tables 18-22); format: cell-based, Pseudomonas aeruginosa; details: for FICI: isolate WC-452
Experimental: Such resensitization may be determined by combining the present lysins or lysin-AMP polypeptide constructs with an antibiotic in a checkerboard assay as described herein. Antibiotic-resistant bacteria, such as carbapenem-resistant P. aeruginosa, are added to the lysin or lysin-AMP polypeptide construct combination. […] See Clinical and Laboratory Standards Institute (CLSI), CLSI. […] M100 Performance Standards for Antimicrobial Susceptibility Testing; 29th Edition. Clinical and Laboratory Standards Institute, Wayne, Pa., which is herein incorporated by reference in its entirety.
Up to seven carbapenem-resistant isolates were assessed. […] See Clinical and Laboratory Standards Institute (CLSI), CLSI. […] M100 Performance Standards for Antimicrobial Susceptibility Testing; 29th Edition. Clinical and Laboratory Standards Institute, Wayne, Pa.

B1: GN351: lysin-AMP construct: TAGGTAGG linker and amurin peptide Ecp2 C-terminal to GN316 lysin (SEQ ID NO: 32) (protein)
chain: MAILKIGSKGLEVKNLQTSLNKIGFNLVADGIFGKATDNAVRAVQAGAGLVVDGIAGPKTMYAIRNAGESHQDHLTEADLIDAARELSVDLASIKAVNQVESRGTGFTKSGKIKTLFERHIMYKKLNAKFGQAKANALAQLYPTLVNAKAGGYTGGDAELERLHGAIAIDKDCAYESASYGLFQIMGFNCVICGYDNAEEMFNDFLTGERAQLMAFVKFIKADANLWKALKDKNWAEFARRYNGPAYAQNQYDTKLAAAYKSFSTAGGTAGGARSRRRMSKRSSRRSFRKYAKSHKKNFKARSMRGGIRL
Q: Which results are given for B1?
A: CAA MIC ([1]; CAA medium, no human serum): 8000 mg/L; CAA/HuS MIC ([1]; CAA supplemented with […] human serum): 125 mg/L; MIC in 25% CAA [2]: 1 mg/L; bactericidal activity (CFU decrease of 3-Log10, 3 hours after the addition of lysin) ([3]; 10 μg/mL, enumerated lysins in CAA/HuS, general statement for HEPES and CAA/HuS): bactericidal activity; CAA/HuS (Log10 CFU/mL), 1 hr ([3]; CAA + 25% human serum, lysin 10 μg/ml, 1 hr, WC-453): 4.6 Log10 CFU/mL; CAA/HuS (Log10 CFU/mL), 3 hr ([3]; CAA + 25% human serum, lysin 10 μg/ml, 3 hr, WC-453): <3.7 Log10 CFU/mL; MBEC [4]: 1 µg/mL; activity against P. aeruginosa isolates in human serum or SURVANTA ([5]; Tables 11 and 12): active against a variety of P. aeruginosa isolates; MIC, CAA + […] Human Serum ([5]; strain CFS 1109 (ATCC 17646)): 1 mg/L; MIC, CAA + […] Human Serum ([5]; strain CFS 1292): 1 mg/L; MIC, CAA + […] Human Serum ([5]; strain CFS1539 (PA1)): 0.5 mg/L; MIC, CAA + […] Human Serum ([5]; strain CFS 1540 (PA2)): 0.5 mg/L; MIC, CAA + […] Human Serum ([5]; strain CFS 1541 (PA3)): 0.5 mg/L; MIC, CAA + […] Human Serum ([5]; strain CFS 1557 (PA19)): 4 mg/L; MIC, CAA + […] Human Serum ([5]; strain CFS 1558 (PA20)): 1 mg/L; MIC, CAA + […] Human Serum ([5]; strain CFS 1559 (PA21)): 2 mg/L; MIC, CAA + […] Human Serum ([5]; strain CFS 1560 (PA22)): 2 mg/L; MIC, CAA + […] Human Serum ([5]; strain CFS 1561 (PA23)): 2 mg/L; MIC, CAA + […] Human Serum ([5]; strain CFS 1562 (PA24)): 2 mg/L; MIC, CAA + […] Human Serum ([5]; strain CFS 1596 (PA26)): 1 mg/L; MIC, CAA + […] Human Serum ([5]; strain CFS 1597 (PA27)): 0.5 mg/L; MIC, CAA + […] Human Serum ([5]; strain CFS 1669 (PA41)): 1 mg/L; MIC, CAA + […] Human Serum ([5]; strain CFS 1674 (PA46)): 1 mg/L; MIC, CAA + […] Human Serum ([5]; strain CFS 1675 (PA47)): 0.5 mg/L; MIC, CAA + […] Human Serum ([5]; strain CFS 1766 (ATCC 27853)): 2 mg/L; MIC in […] Survanta [6]: 4 mg/L; MIC in human serum ([…]) in CAA [6]: 0.0625 mg/L; activity in human serum and pulmonary surfactant [6]: active in human serum and pulmonary surfactant; 25% CAA MIC ([6]; media alone): 1; MBEC in CAA supplemented with […] human serum [7]: 0.5 µg/mL; % RFU ([8]; 5 minutes): 381 % RFU; % RFU ([8]; 10 minutes): 406 % RFU; % RFU ([8]; 20 minutes): 407 % RFU; % RFU ([8]; 40 minutes): 386 % RFU; % RFU ([8]; 60 minutes): 383 % RFU; % RFU ([8]; 100 minutes): 338 % RFU; synergy with meropenem ([9]; FICI less than or equal to 0.5 = potent synergy): exhibited synergy with meropenem; FICI value (Run #1), with meropenem ([9]; strain CFS 1292): 0.1875; FICI value (Run #2), with meropenem ([9]; strain CFS 1292): 0.219; FICI value (Run #1), with meropenem ([9]; strain CFS 1557 (PA19)): 0.25; FICI value (Run #2), with meropenem ([9]; strain CFS 1557 (PA19)): 0.292; FICI value (Run #1), with meropenem ([9]; strain CFS 1558 (PA20)): 0.1562; FICI value (Run #2), with meropenem ([9]; strain CFS 1558 (PA20)): 0.177; FICI value (Run #2), with meropenem ([9]; strain CFS 1559 (PA21)): 0.177; FICI value (Run #2), with meropenem ([9]; strain CFS 1560 (PA22)): 0.323; FICI value (Run #2), with meropenem ([9]; strain CFS 1561 (PA23)): 0.240; FICI value (Run #2), with meropenem ([9]; strain CFS 1562 (PA24)): 0.177; FICI value (Run #2), with meropenem ([9]; strain CFS 1766 (ATCC 27853)): 0.109; resensitization to carbapenems in synergistic combinations ([10]; imipenem (IPM) and meropenem (MEM), carbapenem-resistant isolates): reductions of IPM and MEM MICS to below breakpoint values; FICI ([10]; lysin + imipenem): 0.156; FICI ([10]; lysin + meropenem): 0.188; Antibiotic MIC / Lysin MIC, Alone ([10]; vs. WC-452 (Table 22)): 1
